According to patent publication US20030113867A1:
Values belong to the binder of their own block, whether it stands above or below them.

Key:
[1] = molecular target: prokineticin receptor expressed endogenously on M2A7 melanoma cells (ATCC CRL-2500); assay: cell-based or functional assay
[2] = molecular target: prokineticin receptor(s) of guinea pig ileal smooth muscle (ileal membrane preparation / ileum longitudinal muscle) (guinea pig); assay: cell-based or functional assay
[3] = molecular target: prokineticin receptor expressed endogenously on M2A7 melanoma cells (ATCC CRL-2500); assay: binding of iodinated prokineticin 1 to M2A7 melanoma cells
[4] = molecular target: prokineticin receptor(s) of guinea pig ileal smooth muscle (ileal membrane preparation / ileum longitudinal muscle) (guinea pig); assay: saturation binding of 125I-prokineticin 1 to guinea pig ileal membranes, low-affinity site, n=3
[5] = molecular target: prokineticin receptor(s) of guinea pig ileal smooth muscle (ileal membrane preparation / ileum longitudinal muscle) (guinea pig); assay: saturation binding of 125I-prokineticin 1 to guinea pig ileal membranes, high-affinity site, n=3
[6] = molecular target: prokineticin receptor(s) of guinea pig ileal smooth muscle (ileal membrane preparation / ileum longitudinal muscle) (guinea pig); assay: saturation binding of 125I-prokineticin 1 to guinea pig ileal membranes, Scatchard analysis, two-site model, low-affinity site, n=3
[7] = molecular target: prokineticin receptor(s) of guinea pig ileal smooth muscle (ileal membrane preparation / ileum longitudinal muscle) (guinea pig); assay: saturation binding of 125I-prokineticin 1 to guinea pig ileal membranes, Scatchard analysis, two-site model, high-affinity site, n=3
[8] = molecular target: prokineticin receptor(s) of guinea pig ileal smooth muscle (ileal membrane preparation / ileum longitudinal muscle) (guinea pig); assay: displacement of 125I-prokineticin 1 (20 pM) from guinea pig ileal membranes by unlabeled prokineticin 1, two-site model, low-affinity site
[9] = molecular target: prokineticin receptor(s) of guinea pig ileal smooth muscle (ileal membrane preparation / ileum longitudinal muscle) (guinea pig); assay: displacement of 125I-prokineticin 1 (20 pM) from guinea pig ileal membranes by unlabeled prokineticin 1, two-site model, high-affinity site
[10] = molecular target: prokineticin receptor(s) of guinea pig ileal smooth muscle (ileal membrane preparation / ileum longitudinal muscle) (guinea pig); assay: competition radioligand binding on guinea pig ileal membranes, filtration; unlabeled prokineticin 1 varied against 125I-prokineticin 1 (20 pM)
[11] = molecular target: prokineticin receptor(s) of guinea pig ileal smooth muscle (ileal membrane preparation / ileum longitudinal muscle) (guinea pig); assay: displacement of 125I-prokineticin 1 (20 pM) from guinea pig ileal membranes by unlabeled prokineticin 2, low-affinity site
[12] = molecular target: prokineticin receptor(s) of guinea pig ileal smooth muscle (ileal membrane preparation / ileum longitudinal muscle) (guinea pig); assay: displacement of 125I-prokineticin 1 (20 pM) from guinea pig ileal membranes by unlabeled prokineticin 2, high-affinity site
[13] = molecular target: prokineticin receptor(s) of guinea pig ileal smooth muscle (ileal membrane preparation / ileum longitudinal muscle) (guinea pig); assay: competition radioligand binding on guinea pig ileal membranes, filtration; unlabeled prokineticin 2 varied against 125I-prokineticin 1 (20 pM)

B2: chimeric prokineticin 21 (exons 1 and 2 of prokineticin 2, exon 3 of prokineticin 1) (ligand)
chain: AVITGACDKDSQCGGGMCCAVSIWVKSIRICTPMGKLGDSCHPLTRKVPFFRKRKHHTCPCLPNLLCSRFPDGRYRCSMDLKNINF
EC50 of ileal contraction relative to prokineticin 1 or prokineticin 2 [2]: 8 fold
time constant to midway contraction of ileal strips [2]: 40 min

B4: chimeric prokineticin 12 (exons 1 and 2 of prokineticin 1, exon 3 of prokineticin 2) (ligand)
chain: AVITGACERDVQCGAGTCCAISLWLRGLRMCTPLGREGEECHPGSHKVPFFGRRMHHTCPCLPGLACLRTSFNRFICLAQK
time constant to midway contraction of ileal strips [2]: 40 min

The remaining lines, values ahead:

calcium mobilization in M2A7 melanoma cells (FLIPR), EC50 [1]: 12 nM
contraction of guinea-pig ileum longitudinal muscle, ED50 [2]: 0.46 nM
time constant to midway contraction of ileal strips [2]: 15 min
receptor level (fmole/mg protein) [3]: 150
Bmax (fmol/mg of protein) [4]: 26.4
Bmax (fmol/mg of protein) [5]: 7.8
Kd [6]: 0.227 nM
Kd [7]: 0.005 nM
Ki [8]: 1.5 nM
Ki [9]: 0.008 nM
IC50 (read off the curve) [10]: 5 nM
B1: recombinant refolded human prokineticin 1 with C-terminal 6xHis-tag (ligand)
chain: AVITGACERDVQCGAGTCCAISLWLRGLRMCTPLGREGEECHPGSHKVPFFRKRKHHTCPCLPNLLCSRFPDGRYRCSMDLKNINFHHHHHH
modifications: 125I-iodinated by the iodogen method where used as the labeled ligand; plain where used as unlabeled competitor; five disulfide bonds

calcium mobilization in M2A7 melanoma cells (FLIPR), EC50 [1]: 21 nM
contraction of guinea-pig ileum longitudinal muscle, ED50 [2]: 0.9 nM
time constant to midway contraction of ileal strips [2]: 15 min
Ki [11]: 1.22 nM
Ki [12]: 0.0042 nM
IC50 (read off the curve) [13]: 4 nM
B3: recombinant refolded human prokineticin 2 with C-terminal 6xHis-tag (ligand)
chain: AVITGACDKDSQCGGGMCCAVSIWVKSIRICTPMGKLGDSCHPLTRKVPFFGRRMHHTCPCLPGLACLRTSFNRFICLAQKHHHHHH
